From PMC4593227, “Biochemical effects of mutations in the gene encoding the alpha subunit of eukaryotic initiation factor (eIF) 2B associated with Vanishing White Matter disease” (BMC Medical Genetics, 2015)

Key:
[1] = biological target: T1, His6-myc-tagged Val183Phe eIF2Bα (human, UniProt Q14232 1-305, Val183Phe); test: cell-based or functional assay
T1 sequence: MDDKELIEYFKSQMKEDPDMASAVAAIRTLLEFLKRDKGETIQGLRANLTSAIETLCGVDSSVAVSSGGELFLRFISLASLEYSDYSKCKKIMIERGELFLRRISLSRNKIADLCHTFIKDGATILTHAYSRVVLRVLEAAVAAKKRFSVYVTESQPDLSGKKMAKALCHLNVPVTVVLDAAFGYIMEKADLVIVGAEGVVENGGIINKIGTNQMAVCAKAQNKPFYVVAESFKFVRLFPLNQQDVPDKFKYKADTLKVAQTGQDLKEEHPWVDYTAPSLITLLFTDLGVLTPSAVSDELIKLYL

[2] = biological target: T2, His6-myc-tagged Tyr275Cys eIF2Bα (human, UniProt Q14232 1-305, Tyr275Cys); test: pull-down; His6-myc-eIF2Bα (WT or mutant) co-expressed with myc-tagged eIF2B subunits in HEK293; ~200 μg lysate on Ni2+-NTA agarose, 1 h at 4 °C, lysis buffer (20 mM Hepes-KOH pH 7.6, 50 mM KCl, 0.5 % Triton X-100) with 20 mM imidazole; bound material blotted for myc tag, total and phospho-eIF2α; details: partners not purified
T2 construct: eIF2Bα encoded by EIF2B1 with the VWM patient mutation Tyr275Cys; residue numbers start with the first methionine of GenBank AAI03764; also called p.Tyr275Cys; source: HEK293, transfected (calcium phosphate), in lysate
T2 sequence: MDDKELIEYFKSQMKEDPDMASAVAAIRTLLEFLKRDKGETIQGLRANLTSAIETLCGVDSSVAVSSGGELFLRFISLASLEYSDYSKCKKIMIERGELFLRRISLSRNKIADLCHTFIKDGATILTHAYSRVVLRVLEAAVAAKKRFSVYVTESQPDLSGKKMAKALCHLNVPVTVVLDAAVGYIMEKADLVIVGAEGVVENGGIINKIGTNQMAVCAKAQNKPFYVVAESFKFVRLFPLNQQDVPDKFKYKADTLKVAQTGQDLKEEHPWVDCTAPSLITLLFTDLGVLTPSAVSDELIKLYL

[3] = biological target: T1, His6-myc-tagged Val183Phe eIF2Bα; test: as above; details: partners not purified

Row | Binder | decrease in eIF2B GEF activity of complexes containing Val183Phe eIF2Bα, relative to WT (100 %) [1] [%] | reduction in binding relative to WT [2] [%] | reduction in binding relative to WT [3] [%]
1 | myc-tagged eIF2Bβ (natural protein, UniProt P49770 1-351, looked up, eIF2Bβ, beta subunit of eukaryotic initiation factor 2B; one of 'the other subunits of the eIF2B complex'; source: HEK293, transfected (calcium phosphate), in lysate) MPGSAAKGSELSERIESFVETLKRGGGPRSSEEMARETLGLLRQIITDHRWSNAGELMELIRREGRRMTAAQPSETTVGNMVRRVLKIIREEYGRLHGRSDESDQQESLHKLLTSGGLNEDFSFHYAQLQSNIIEAINELLVELEGTMENIAAQALEHIHSNEVIMTIGFSRTVEAFLKEAARKRKFHVIVAECAPFCQGHEMAVNLSKAGIETTVMTDAAIFAVMSRVNKVIIGTKTILANGALRAVTGTHTLALAAKHHSTPLIVCAPMFKLSPQFPNEEDSFHKFVAPEEVLPFTEGDILEKVSVHCPVFDYVPPELITLFISNIGGNAPSYIYRLMSELYHPDDHVL | ~30 | ~50 | ~50
2 | myc-tagged eIF2Bγ (natural protein, UniProt Q9NR50 1-452, looked up, eIF2Bγ, gamma subunit of eukaryotic initiation factor 2B; one of 'the other subunits of the eIF2B complex'; source: HEK293, transfected (calcium phosphate), in lysate) MEFQAVVMAVGGGSRMTDLTSSIPKPLLPVGNKPLIWYPLNLLERVGFEEVIVVTTRDVQKALCAEFKMKMKPDIVCIPDDADMGTADSLRYIYPKLKTDVLVLSCDLITDVALHEVVDLFRAYDASLAMLMRKGQDSIEPVPGQKGKKKAVEQRDFIGVDSTGKRLLFMANEADLDEELVIKGSILQKHPRIRFHTGLVDAHLYCLKKYIVDFLMENGSITSIRSELIPYLVRKQFSSASSQQGQEEKEEDLKKKELKSLDIYSFIKEANTLNLAPYDACWNACRGDRWEDLSRSQVRCYVHIMKEGLCSRVSTLGLYMEANRQVPKLLSALCPEEPPVHSSAQIVSKHLVGVDSLIGPETQIGEKSSIKRSVIGSSCLIKDRVTITNCLLMNSVTVEEGSNIQGSVICNNAVIEKGADIKDCLIGSGQRIEAKAKRVNEVIVGNDQLMEI | ~30 | ~50 | ~50
